B1: Lipr27RCL (Rhizopus microsporus var. chinensis) (protein)
chain: DTETVGGMTLDLPENPPPIPATSTAPSSDSGEVVTATAAQIKELTNYAGVAATAYCRSVVPGTKWDCKQCLKYVPDGKLIKTFTSLLTDTNGFILRSDAQKTIYVTFRGTNSFRSAITDMVFTFTDYSPVKGAKVHAGFLSSYNQVVKDYFPVVQDQLTAYPDYKVIVTGHSLGGAQALLAGMDLYQREKRLSPKNLSIYTVGCPRVGNNAFAYYVDSTGIPFHRTVHKRDIVPHVPPQAFGYLHPGVESWIKEDPADVQICTSNIETKQCSNSIVPFTSIADHLTYFGINEGSCL

Legend:
[1] = system: CCCCCCCCCCCCCCCC(=O)Oc1ccc([N+](=O)[O-])cc1; assay: p-nitrophenol release, Lineweaver-Burk; format: biochemical, Rhizopus microsporus; details: Tris-HCl pH 9, 37 °C, substrate 4-PNN [sic], 4-NPP in materials, apparent Km
Excerpt: (§1) p-nitrophenol release, Lineweaver-Burk on Lipr27RCL

[2] = substrate: CCCCCCCCCCCCCCCC(=O)Oc1ccc([N+](=O)[O-])cc1; assay: p-nitrophenol release, Lineweaver-Burk; format: biochemical, Rhizopus microsporus; details: Tris-HCl pH 9, 37 °C, substrate 4-PNN [sic], 4-NPP in materials, apparent Km; remark: listed apart in the source
Excerpt: as §1

| Molecule | Km [1] | Vmax [1] | kcat [1] | kcat/Km [1] | Km [2] | Vmax [2] | kcat [2] | kcat/Km [2] |
| --- | --- | --- | --- | --- | --- | --- | --- | --- |
| Lipr27RCL (Rhizopus microsporus var. chinensis; K161T) | 290 ± 60 µM | 714 µmol/min/mg | 188 ± 13.7 s⁻¹ | 648000 M⁻¹ s⁻¹ | – | – | – | – |
| Lipr27RCL (Rhizopus microsporus var. chinensis; W158I) | 450 ± 40 µM | 500 µmol/min/mg | 132 ± 19.4 s⁻¹ | 292000 M⁻¹ s⁻¹ | – | – | – | – |
| Lipr27RCL (Rhizopus microsporus var. chinensis; K157N) | 290 ± 90 µM | 588 µmol/min/mg | 185 ± 18.5 s⁻¹ | 637000 M⁻¹ s⁻¹ | – | – | – | – |
| Lipr27RCL (Rhizopus microsporus var. chinensis; D159T) | 380 ± 50 µM | 709 µmol/min/mg | 187 ± 16.3 s⁻¹ | 491000 M⁻¹ s⁻¹ | – | – | – | – |
| B1 | – | – | – | – | 360 ± 60 µM | 714 µmol/min/mg | 188 ± 18.2 s⁻¹ | 522000 M⁻¹ s⁻¹ |

Reference: PMC7063977, “Improving the Thermostability of Rhizopus chinensis Lipase Through Site-Directed Mutagenesis Based on B-Factor Analysis” (Frontiers in Microbiology, 2020)
